T1: Elastase from human neutrophils (human, UniProt P08246 30-247, limits assumed)
T1 sequence (looked up): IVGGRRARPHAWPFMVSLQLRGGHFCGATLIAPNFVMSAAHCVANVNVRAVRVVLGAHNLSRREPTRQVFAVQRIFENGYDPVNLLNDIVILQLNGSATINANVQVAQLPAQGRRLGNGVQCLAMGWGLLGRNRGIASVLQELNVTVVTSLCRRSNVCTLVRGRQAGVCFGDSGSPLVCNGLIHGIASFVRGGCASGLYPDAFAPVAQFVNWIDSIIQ

T2: Chymase, from human skin (human, UniProt P23946 22-247)
T2 sequence (looked up): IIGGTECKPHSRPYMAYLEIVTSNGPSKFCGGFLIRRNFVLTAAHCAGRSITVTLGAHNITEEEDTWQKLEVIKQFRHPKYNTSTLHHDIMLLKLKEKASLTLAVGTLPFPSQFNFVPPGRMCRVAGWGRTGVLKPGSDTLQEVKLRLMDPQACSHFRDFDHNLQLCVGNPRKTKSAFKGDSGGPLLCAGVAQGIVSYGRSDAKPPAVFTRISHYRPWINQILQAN

T3: CathepsinG, from human neutrophils (human, UniProt P08311 21-244)
T3 sequence (looked up): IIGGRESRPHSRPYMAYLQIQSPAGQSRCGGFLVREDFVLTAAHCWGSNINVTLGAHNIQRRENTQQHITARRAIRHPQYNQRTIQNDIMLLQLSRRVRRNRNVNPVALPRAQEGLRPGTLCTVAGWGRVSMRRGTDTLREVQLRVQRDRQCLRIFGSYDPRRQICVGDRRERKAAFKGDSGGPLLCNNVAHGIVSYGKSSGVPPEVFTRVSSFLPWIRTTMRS


Legend:
Assay in all cases: cell-based or functional assay
[1] = target: Urokinase from human urine (human, UniProt P00749 21-431, limits assumed)
[2] = target: T1, Elastase from human neutrophils
[3] = target: Thrombin, from Human Plasma, high activity (human, UniProt P00734 328-622)
[4] = target: Trypsin, Iodination grade, from human pancreas (human, UniProt P07477 24-247)
Chymase, from human skin = target: T2, Chymase, from human skin
[5] = target: Coagulation Factor Xa, from human plasma (human, UniProt P00742 41-488, limits assumed)
Chain of Coagulation Factor Xa, from human plasma (P00742 41-488 limits assumed): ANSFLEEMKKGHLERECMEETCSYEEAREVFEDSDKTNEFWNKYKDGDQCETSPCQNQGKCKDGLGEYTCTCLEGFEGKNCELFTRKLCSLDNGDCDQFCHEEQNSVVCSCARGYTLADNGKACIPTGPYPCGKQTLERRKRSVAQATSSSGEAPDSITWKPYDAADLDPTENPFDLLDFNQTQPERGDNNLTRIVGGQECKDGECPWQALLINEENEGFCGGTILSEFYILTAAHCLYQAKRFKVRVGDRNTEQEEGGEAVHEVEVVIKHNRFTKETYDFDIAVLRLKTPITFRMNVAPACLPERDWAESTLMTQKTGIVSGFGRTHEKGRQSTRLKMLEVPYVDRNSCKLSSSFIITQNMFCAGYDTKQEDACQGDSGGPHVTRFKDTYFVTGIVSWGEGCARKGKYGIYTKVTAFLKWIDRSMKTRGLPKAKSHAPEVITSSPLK

[6] = target: Chymotrypsin, from human pancreas (human, UniProt P17538 19-263)
Chain of Chymotrypsin, from human pancreas (P17538 19-263): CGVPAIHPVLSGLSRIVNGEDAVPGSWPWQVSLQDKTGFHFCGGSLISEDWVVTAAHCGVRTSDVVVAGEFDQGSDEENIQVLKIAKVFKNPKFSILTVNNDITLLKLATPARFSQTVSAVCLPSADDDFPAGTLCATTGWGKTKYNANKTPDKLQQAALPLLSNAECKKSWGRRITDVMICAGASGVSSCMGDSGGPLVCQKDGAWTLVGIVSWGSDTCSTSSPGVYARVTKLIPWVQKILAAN

[7] = target: T3, CathepsinG, from human neutrophils
[8] = target: Tryptase, from human lung (human, UniProt Q15661 31-275, limits assumed)
Chain of Tryptase, from human lung (Q15661 31-275 limits assumed): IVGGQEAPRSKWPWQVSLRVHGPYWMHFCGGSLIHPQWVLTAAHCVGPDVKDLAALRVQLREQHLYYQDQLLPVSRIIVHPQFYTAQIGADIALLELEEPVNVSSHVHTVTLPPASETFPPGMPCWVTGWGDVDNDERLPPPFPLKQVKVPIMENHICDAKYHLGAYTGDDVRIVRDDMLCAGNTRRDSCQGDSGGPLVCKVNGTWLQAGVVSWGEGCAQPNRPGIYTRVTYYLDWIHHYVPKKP

Binder	% inhibition at 100 µM [1] [%]	IC50 [2] [nmol]	% inhibition at 100 µM [3] [%]	% inhibition at 100 µM [4] [%]	% inhibition at 100 µM (Chymase, from human skin) [%]	% inhibition at 100 µM [5] [%]	% inhibition at 100 µM [6] [%]	IC50 [7] [nmol]	% inhibition at 100 µM [7] [%]	% inhibition at 100 µM [8] [%]
ICTKSDPPXCR (HELM PEPTIDE1{I.C.T.K.S.D.P.P.[Cha].C.R.[dP].P}$PEPTIDE1,PEPTIDE1,2:R3-10:R3|PEPTIDE1,PEPTIDE1,1:R1-13:R2$$$V2.0; SMILES CC[C@H](C)[C@@H]1NC(=O)[C@@H]2CCCN2C(=O)[C@H]2CCCN2C(=O)[C@H](CCCNC(=N)N)NC(=O)[C@@H]2CSSC[C@H](NC1=O)C(=O)N[C@@H]([C@@H](C)O)C(=O)N[C@@H](CCCCN)C(=O)N[C@@H](CO)C(=O)N[C@@H](CC(=O)O)C(=O)N1CCC[C@H]1C(=O)N1CCC[C@H]1C(=O)N[C@@H](CC1CCCCC1)C(=O)N2) [Example 20]	6.7	> 100000	28	97	44.1	25	0	48		
ICTKSDPPXCR (HELM PEPTIDE1{I.C.T.K.S.D.P.P.[Nle].C.R.[dP].P}$PEPTIDE1,PEPTIDE1,2:R3-10:R3|PEPTIDE1,PEPTIDE1,1:R1-13:R2$$$V2.0; SMILES CCCC[C@@H]1NC(=O)[C@@H]2CCCN2C(=O)[C@@H]2CCCN2C(=O)[C@H](CC(=O)O)NC(=O)[C@H](CO)NC(=O)[C@H](CCCCN)NC(=O)[C@H]([C@@H](C)O)NC(=O)[C@@H]2CSSC[C@H](NC1=O)C(=O)N[C@@H](CCCNC(=N)N)C(=O)N1CCC[C@@H]1C(=O)N1CCC[C@H]1C(=O)N[C@@H]([C@@H](C)CC)C(=O)N2) [Example 57]	4	> 100000	11	94	26.9	32	0	41		
FCTXSDPPICY (HELM PEPTIDE1{F.C.T.[Nle].S.D.P.P.I.C.Y.[dP].P}$PEPTIDE1,PEPTIDE1,2:R3-10:R3|PEPTIDE1,PEPTIDE1,1:R1-13:R2$$$V2.0; SMILES CCCC[C@@H]1NC(=O)[C@H]([C@@H](C)O)NC(=O)[C@@H]2CSSC[C@H](NC(=O)[C@H]([C@@H](C)CC)NC(=O)[C@@H]3CCCN3C(=O)[C@@H]3CCCN3C(=O)[C@H](CC(=O)O)NC(=O)[C@H](CO)NC1=O)C(=O)N[C@@H](Cc1ccc(O)cc1)C(=O)N1CCC[C@@H]1C(=O)N1CCC[C@H]1C(=O)N[C@@H](Cc1ccccc1)C(=O)N2) [Example 23]	9	> 100000	0	90	60	11	4	38		
XCTKSDPPICY (HELM PEPTIDE1{[O=C([C@H](CCc1ccccc1)N[*:1])[*:2]].C.T.K.S.D.P.P.I.C.Y.[dP].P}$PEPTIDE1,PEPTIDE1,2:R3-10:R3|PEPTIDE1,PEPTIDE1,1:R1-13:R2$$$V2.0; SMILES CC[C@H](C)[C@@H]1NC(=O)[C@@H]2CCCN2C(=O)[C@@H]2CCCN2C(=O)[C@H](CC(=O)O)NC(=O)[C@H](CO)NC(=O)[C@H](CCCCN)NC(=O)[C@H]([C@@H](C)O)NC(=O)[C@@H]2CSSC[C@H](NC1=O)C(=O)N[C@@H](Cc1ccc(O)cc1)C(=O)N1CCC[C@@H]1C(=O)N1CCC[C@H]1C(=O)N[C@@H](CCc1ccccc1)C(=O)N2) [Example 30]	9	49900	2	98	0	3	49	39		
ICTKSDPPXCR (HELM PEPTIDE1{I.C.T.K.S.D.P.P.[Nle].C.R.[dP].P}$PEPTIDE1,PEPTIDE1,2:R3-10:R3|PEPTIDE1,PEPTIDE1,1:R1-13:R2$$$V2.0; SMILES CCCC[C@@H]1NC(=O)[C@@H]2CCCN2C(=O)[C@@H]2CCCN2C(=O)[C@H](CC(=O)O)NC(=O)[C@H](CO)NC(=O)[C@H](CCCCN)NC(=O)[C@H]([C@@H](C)O)NC(=O)[C@@H]2CSSC[C@H](NC1=O)C(=O)N[C@@H](CCCNC(=N)N)C(=O)N1CCC[C@@H]1C(=O)N1CCC[C@H]1C(=O)N[C@@H]([C@@H](C)CC)C(=O)N2) [Example 19]	4	> 100000	11	94	26.9	32	0	41		

Now from value to binder:

% inhibition at 100 µM [1] [%]	IC50 [2] [nmol]	% inhibition at 100 µM [3] [%]	% inhibition at 100 µM [4] [%]	% inhibition at 100 µM (Chymase, from human skin) [%]	% inhibition at 100 µM [5] [%]	% inhibition at 100 µM [6] [%]	IC50 [7] [nmol]	% inhibition at 100 µM [7] [%]	% inhibition at 100 µM [8] [%]	Binder
6.7	> 100000	28	97	44.1	25	0	47.5			ICTKSDPPXCR (HELM PEPTIDE1{I.C.T.K.S.D.P.P.[Cha].C.R.[dP].P}$PEPTIDE1,PEPTIDE1,2:R3-10:R3|PEPTIDE1,PEPTIDE1,1:R1-13:R2$$$V2.0; SMILES CC[C@H](C)[C@@H]1NC(=O)[C@@H]2CCCN2C(=O)[C@H]2CCCN2C(=O)[C@H](CCCNC(=N)N)NC(=O)[C@@H]2CSSC[C@H](NC1=O)C(=O)N[C@@H]([C@@H](C)O)C(=O)N[C@@H](CCCCN)C(=O)N[C@@H](CO)C(=O)N[C@@H](CC(=O)O)C(=O)N1CCC[C@H]1C(=O)N1CCC[C@H]1C(=O)N[C@@H](CC1CCCCC1)C(=O)N2) [Example 58]
9	> 100000	0	90	60	11	4	38			FCTXSDPPICY (HELM PEPTIDE1{F.C.T.[Nle].S.D.P.P.I.C.Y.[dP].P}$PEPTIDE1,PEPTIDE1,2:R3-10:R3|PEPTIDE1,PEPTIDE1,1:R1-13:R2$$$V2.0; SMILES CCCC[C@@H]1NC(=O)[C@H]([C@@H](C)O)NC(=O)[C@@H]2CSSC[C@H](NC(=O)[C@H]([C@@H](C)CC)NC(=O)[C@@H]3CCCN3C(=O)[C@@H]3CCCN3C(=O)[C@H](CC(=O)O)NC(=O)[C@H](CO)NC1=O)C(=O)N[C@@H](Cc1ccc(O)cc1)C(=O)N1CCC[C@@H]1C(=O)N1CCC[C@H]1C(=O)N[C@@H](Cc1ccccc1)C(=O)N2) [Example 60]
	28	13.1			8.7			61.3		XCTASXPPQCY (HELM PEPTIDE1{[Nle].C.T.A.S.[CCCCCCCC[C@H](N[*:1])C(=O)[*:2]].P.P.Q.C.Y.[dP].P}$PEPTIDE1,PEPTIDE1,2:R3-10:R3|PEPTIDE1,PEPTIDE1,1:R1-13:R2$$$V2.0; SMILES CCCCCCCC[C@@H]1NC(=O)[C@H](CO)NC(=O)[C@H](C)NC(=O)[C@H]([C@@H](C)O)NC(=O)[C@@H]2CSSC[C@H](NC(=O)[C@H](CCC(N)=O)NC(=O)[C@@H]3CCCN3C(=O)[C@@H]3CCCN3C1=O)C(=O)N[C@@H](Cc1ccc(O)cc1)C(=O)N1CCC[C@@H]1C(=O)N1CCC[C@H]1C(=O)N[C@@H](CCCC)C(=O)N2) [Example 81]
	18				15.3	72.9			44.5	XCTASXPPQCY (HELM PEPTIDE1{[Nle].C.T.A.S.[Cha].P.P.Q.C.Y.[dP].P}$PEPTIDE1,PEPTIDE1,2:R3-10:R3|PEPTIDE1,PEPTIDE1,1:R1-13:R2$$$V2.0; SMILES CCCC[C@@H]1NC(=O)[C@@H]2CCCN2C(=O)[C@H]2CCCN2C(=O)[C@H](Cc2ccc(O)cc2)NC(=O)[C@@H]2CSSC[C@H](NC1=O)C(=O)N[C@@H]([C@@H](C)O)C(=O)N[C@@H](C)C(=O)N[C@@H](CO)C(=O)N[C@@H](CC1CCCCC1)C(=O)N1CCC[C@H]1C(=O)N1CCC[C@H]1C(=O)N[C@@H](CCC(N)=O)C(=O)N2) [Example 82]

Reference: patent US20140213531A1 (POLYPHOR, published 2014)
